From doi:10.1101/2024.10.10.617615

Biological target: SpyCatcher003
Experiment: gel shift assay of isopeptide ligation

Row | fold change of ligation rate against Oxo (slower) | fold change of ligation rate against Val^S3 (slower) | Substance | fold change of ligation rate against Oxo (faster)
1 | 1.6 fold |  | SpyTag003 Val^S9 thioamide variant (peptide) | 
2 | 1.2 fold | 2 fold | SpyTag003 Val^S3-Pro^S4 dual thioamide peptide | 

The next lines start with the substance.

Row | Substance | fold change of ligation rate against Oxo (slower) | fold change of ligation rate against Val^S3 (slower) | fold change of ligation rate against Oxo (faster)
3 | SpyTag003 Ile^S6 thioamide variant (peptide) | 5.4 fold |  | 
4 | SpyTag003 Ala^S11 thioamide variant (peptide) | 38 fold |  | 
5 | SpyTag003 Met^S8 thioamide variant (peptide) | > 2000 fold |  | 
6 | SpyTag003 Val^S7 thioamide variant (peptide) |  |  | 1.4 fold
7 | SpyTag003 Val^S3 thioamide variant (peptide) |  |  | 1.8 fold
